Experiment [1] deals with T1, BoNT/B1 (Clostridium botulinum, UniProt P10844 2-1291).
T1 sequence: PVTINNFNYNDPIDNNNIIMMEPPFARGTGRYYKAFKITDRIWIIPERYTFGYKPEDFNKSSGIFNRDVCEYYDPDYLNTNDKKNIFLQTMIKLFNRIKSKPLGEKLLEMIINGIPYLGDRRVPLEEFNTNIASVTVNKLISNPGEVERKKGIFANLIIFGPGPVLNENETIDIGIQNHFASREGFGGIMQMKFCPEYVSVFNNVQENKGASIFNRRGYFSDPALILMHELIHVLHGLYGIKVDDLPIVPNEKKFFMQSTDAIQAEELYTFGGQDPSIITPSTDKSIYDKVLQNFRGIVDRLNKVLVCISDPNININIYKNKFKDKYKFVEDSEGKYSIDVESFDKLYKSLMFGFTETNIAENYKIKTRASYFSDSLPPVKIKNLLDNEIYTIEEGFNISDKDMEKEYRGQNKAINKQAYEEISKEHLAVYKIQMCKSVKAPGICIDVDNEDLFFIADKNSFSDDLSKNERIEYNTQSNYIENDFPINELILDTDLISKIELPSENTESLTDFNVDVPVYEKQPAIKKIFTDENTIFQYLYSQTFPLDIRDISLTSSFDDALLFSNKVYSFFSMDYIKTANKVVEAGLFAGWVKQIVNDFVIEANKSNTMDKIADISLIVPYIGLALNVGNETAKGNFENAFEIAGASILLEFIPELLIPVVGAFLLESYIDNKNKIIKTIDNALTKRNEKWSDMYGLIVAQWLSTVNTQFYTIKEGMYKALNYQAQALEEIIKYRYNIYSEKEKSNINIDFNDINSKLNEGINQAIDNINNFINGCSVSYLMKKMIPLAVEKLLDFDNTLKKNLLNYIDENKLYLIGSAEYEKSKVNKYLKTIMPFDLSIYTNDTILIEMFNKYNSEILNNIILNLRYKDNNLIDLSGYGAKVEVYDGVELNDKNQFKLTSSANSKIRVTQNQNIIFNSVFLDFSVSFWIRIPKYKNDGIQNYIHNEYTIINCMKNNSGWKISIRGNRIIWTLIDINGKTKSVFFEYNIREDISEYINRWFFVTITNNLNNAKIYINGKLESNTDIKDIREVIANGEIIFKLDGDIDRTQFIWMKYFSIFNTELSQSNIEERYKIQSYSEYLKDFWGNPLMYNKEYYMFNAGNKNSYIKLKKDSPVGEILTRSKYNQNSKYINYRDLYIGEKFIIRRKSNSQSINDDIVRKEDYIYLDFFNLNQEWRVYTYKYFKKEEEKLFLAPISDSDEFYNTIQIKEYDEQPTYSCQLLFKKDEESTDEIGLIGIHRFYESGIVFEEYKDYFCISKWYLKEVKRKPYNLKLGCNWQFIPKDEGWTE
Description: KinExA flow fluorimetry, IgG in solution. For orientation: In KinExA the mixture passes briefly over coated beads that capture the unbound partner.

Experiment [2] addresses T1, BoNT/B1. Description: flow cytometry, yeast-displayed scFv, soluble toxin. For orientation: Flow cytometry measures light scatter and fluorescence of single cells or particles in a stream.
The target of experiment [3] is T1, BoNT/B1. Described as above. This is another data set of the same source.
Experiment [4] has as its target T1, BoNT/B1.
For experiment [5], the target named is T1, BoNT/B1. As to the kind of experiment: flow cytometry, yeast-displayed scFv, soluble toxin. This is another data set of the same source.
Experiment [6] deals with T1, BoNT/B1. As to the kind of experiment: flow cytometry, yeast-displayed Fab, soluble toxin.
Experiment [7] has as its target T1, BoNT/B1. Description: yeast-displayed Fab against parental B6 scFv, flow cytometry.

B1: 2B23 IgG (antibody, V domains shown)
VH: EVQLLESGGGLVQPGGSLRLSCAASGFTFSNYPMSWVRQAPGKGLAWVSSLTASGDNTFYADSVKGRFTISRDNSNNTLYLQMHSLRAEDTAVYYCAKALVGRYDISTGYYRPVMDSWGQGTLVTVSS
VL: DIQMTQSPPSLSASVGDRVTITCRTSQGFTSALAWYQQKPGEPPKLLIYDASKLESGVPSRFSGSGSGTNFALTISSLQPEDFATYFCQQSNSYPLTFGGGTKVEIKR
As for B1, the equilibrium dissociation constant (Kd) (usually a measure of binding affinity in units of concentration) in the experiment with BoNT/B1 [1] came out at 0.0382 nM.

B2: 2B30 scFv (scFv)
scFv: EVQLVESGGGVVQPGRSLRLSCAASGFTFRRNAIHWVRQAPGKGLEWVAVISYDGVNKYYAASVKGRFAISRDNAKNTLFLQMNSLRPEDSAIYYCARDVSEYGDYVGHFDYWGQGTLVTVSSGGGGSGGGGSGGGGSSYELMQLPSASGTPGQRVSISCSGSSSNIGSNPVNWYQQLPGTAPKLLIYSNNHRPSGVPDRFSGSKSGTSASLAISGLQSEDEADYYCAAWDGSLNGHVVFGGGTKLTVL
The molecule B2 had a Kd with BoNT/B1 [2] of 0.37 nM.

B3: 2B25 scFv (scFv)
scFv: QVQLQESGPGLVKPSQTLSLSCSVSGASITSGTFYWSWIRQHPGKDLEWIGYIYYSGTTYYNPSLKSRVTLSVDTSKNQFSLKVTSLTAADTAVYHCARGVPIYDSSGTYRGTYFDYWGQGTLVTVSSGGGGSGGGGSGGGGSQPGLTQPPSASGTPGQRVTISCSGSSSNVGSNTVNWYQQLPGTAPKLLIYRNDQRPSGVPDRFSGSKSGASASLAISGLRSEDEADYYCAAWDDSLNGLLFGGGTQLTVL
B3 had a dissociation constant Kd in the experiment with BoNT/B1 [2] of 0.95 nM. This Kd is about 2.6-fold higher than that of the molecule before.

B4: 1B18 scFv (scFv, V domains shown)
VH: EVQLVQSGGGLVQPGGSRRLSCAASGFYFNAYWMTWVRQAPGKGLEWVANINLDGTEIYYLDSVKGRFTVSRDNVKNSVFLQMSSLRVEDTAVYFCARLEWGGRNGWVSPWGQGTLVTVSS
VL: DVVMTQSPSSVSASVGDRVTITCRASQSISSYLNWYQQRPGKAPKLLIFAASSLQSAVPSRFSGSGSGTDFTLTISSLQPEDFATYYCQQSYSTPPTFGQGTKVEIKR
Regarding B4, the equilibrium dissociation constant (Kd) with BoNT/B1 [2] and with BoNT/B1 [3] was 7.3 nM each time.

B5: 1B18 IgG (antibody, V domains shown)
VH: B4 VH
VL: B4 VL
In the experiment with BoNT/B1 [1], B5 returned a dissociation constant (Kd) of 0.816 nM.

B6: 1B22 scFv (scFv)
scFv: QVQLQESGSRLVKPSQTLSLTCGVSGGSISSSSYSWSWIRQTPGKGLEWIGYIYHSGSTYYNPSLKSRVTMSVDKSRNQFSLNMSSVTAADTAVYYCARTAFYYENTGPIRCYLDFWGQGTLVTVSSGGGGSGGGGSGGGGSDIQMTQSPSTLSASIGDRVTISCRASQSIQSWLAWYQQRPGEAPKLLIYSASTLQTGVPSRFSGSGSGTDFTLTISSLQPEDFATYYCQQYNSYPLTFGQGTKLEIK
With B6, the Kd with BoNT/B1 [2] came out at 0.52 nM; with BoNT/B1 [3], 0.515 nM.

B7: 1B22 IgG (antibody, V domains shown)
VH: QVQLQESGSRLVKPSQTLSLTCGVSGGSISSSSYSWSWIRQTPGKGLEWIGYIYHSGSTYYNPSLKSRVTMSVDKSRNQFSLNMSSVTAADTAVYYCARTAFYYENTGPIRCYLDFWGQGTLVTVSS
VL: DIQMTQSPSTLSASIGDRVTISCRASQSIQSWLAWYQQRPGEAPKLLIYSASTLQTGVPSRFSGSGSGTDFTLTISSLQPEDFATYYCQQYNSYPLTFGQGTKLEIK
Consider B7, for which, in the experiment with BoNT/B1 [4], the “fold increase in affinity, IgG against parental scFv” value was 1.5 to 25 fold. In addition, the dissociation constant (Kd) in the experiment with BoNT/B1 [1] was 0.335 nM.

B8: 1B10 scFv (scFv)
scFv: QVQLVESGGGVVQPGRSLRLSCAASGFTFSHYGMHWVRQSPGKGLEWVAVIWYDGRNPYYAASVKGRFTISRDNDKNTLYLQMNSLRAEDTAVYYCVKDLTRFHDTTFGVFEMWGPGTTVTVSSGGGGSGGGGSGGGGSEIVLTQSPSSLSASVGDRITITCRASQSISSWLAWYQQKPGKAPMVLIYKASSLENGVPSRFSGSGSGTEFTLTISSLQPDDFATYYCQQYSTYSRTFGQGTKVEIK
In the case of B8, the dissociation constant (Kd) with BoNT/B1 [2] was 11.2 nM. This lies in the double-digit nanomolar range.

B9: 2B23 scFv (scFv)
scFv: EVQLLESGGGLVQPGGSLRLSCAASGFTFSNYPMSWVRQAPGKGLAWVSSLTASGDNTFYADSVKGRFTISRDNSNNTLYLQMHSLRAEDTAVYYCAKALVGRYDISTGYYRPVMDSWGQGTLVTVSSGGGGSGGGGSGGGGSDIQMTQSPPSLSASVGDRVTITCRTSQGFTSALAWYQQKPGEPPKLLIYDASKLESGVPSRFSGSGSGTNFALTISSLQPEDFATYFCQQSNSYPLTFGGGTKVEIK
As for B9, the figures for the Kd in the experiment with BoNT/B1 [2] and with BoNT/B1 [3] were 0.08 nM and 0.079 nM, respectively.

B10: 4B6 scFv (scFv)
scFv: QVQLVQSGAEVKKPGESLVISCKASGDKDTFTSFWIAWVRQMPGKGLEWMGIIYAGDSDTRYSPSFQGHVNISVDRSTNTAYLQWSSLKASDTAMYYCARHDSRYKYFYFGMDVWGQGTTVTVSSGGGGSGGGGSGGGGSDVVMTQSPSSLSASVGDRITITCQAGQDISNFLNWYQQKPGKAPKLLIRDASNLETGVPSRFSGGGSGTHFTFTISSLHPEDIATYFCQQYDNLPYTFGQGTKLEIK
With B10, the Kd in the experiment with BoNT/B1 [2] worked out at 2.7 nM.

B11: B11E8 scFv (scFv)
scFv: EVQLVQSGGGVVQPGRSLRLSCAASGFIFRTYGMHWVRQAPGKGLEWVAFVSSDGNNKFYSDSVKGRFTISRDNAKNTLYLQMNSLETEDTAMYYCAKDRYPIDCSGGSCFSYGMDVWGQGTTVTVSSGGGGSGGGGSGGGGSEIVLTQSPATLSVSPGERATLSCRASQSVSKFLAWYQQKRGQAPRLLIYGASTRATGIPARFSGSGSGTEFALTISSLQSEDFADYYCQQYDNWPITFGQGTRLEIK
The molecule B11 showed a Kd with BoNT/B1 [5] of 0.193 nM.

B12: 4B7 scFv (scFv)
scFv: QVQLQQSGPGLVKPSQTLSLTCSVSGGSINSDGSYWSWVRQHPGKGLEWIGYIYYSGTTYFNPSLKSRLTMSVDTSKNQFSLKMTSVTAADTAVYYCARMSGSRSYSQYYFDSWGQGTLVTVSSGGGGSGGGGSGGGGSDIQMTQSPSSLSASVGDRVTITCRASQSISSYLNWYQQKPGTAPKLLISDASTLQSGVPSRFSGSGSGTEFTLTISNLQPEDFATYYCQQFNSYVWTFGQGTKLEIK
As for B12, in the experiment with BoNT/B1 [2], binding was put at a Kd of 29.4 nM. This counts as double-digit nanomolar.

B13: B6.C12 Fab (Fab, V domains shown)
VH: QVQLVQSGAEVKKPGESLVISCKASGDKDTFTSFWIAWVRQMPGKGLEWMGIIYAGDSDTRYSPSFQGHVNISVDRSTNTAYLQWSSLKASDTAMYYCARHDSRYKYFYFGMDVWGQGTTVTVSS
VL: DIVMTQSPSSLSASVGDRVTITCRASQSISSYLNWYQQKPGKAPKLLIYAASSLQSGVPSRFSGSGSGTDFTLTISSLQPEAFATYYCQQSYTAPCTFGQGTKLEIK
Regarding B13, in the experiment with BoNT/B1 [6], the affinity, expressed as Kd, was 0.405 nM. Also, the “KD wild type/KD matured” value with BoNT/B1 [7] was found to be 7 fold.

B14: B6.D2 Fab (Fab, V domains shown)
VH: B13 VH
VL: DVVMTQSPCLPCLHLIGDRVTITCRASQSIRDYLSWYQQEPGKAPKLLIYSASSLQSGVPSRFSGSGSGTDFTLTITNLQPEDFATYYCLEKYSFPRCTFGQGTKLDIKR
For the molecule B14, the Kd with BoNT/B1 [6] was determined as 0.254 nM. Besides, in the experiment with BoNT/B1 [7], the “KD wild type/KD matured” value is 11 fold.

B15: 2B24 scFv (scFv)
scFv: QVQLVESGGGVVQPGRSLRLSCAASGLTFSVYGMHWVRQAPGKGLEWVAVISHTGSEEYYADSVKGRFSISRDNSNNTLFLQMNSLRPEDTAVYYCVKDGPMAAIPFYYFDFWGQGTLVTVSSGGGGSGGGGSGGGGSQSVVTQPPSVSAAPGQKVTISCSGSSSNIGNNYVSWYQQLPGTAPKLLIYDNNKRPSGIPDRFSGSKSGTSATLGITGLQTGDEADYYCGTWDSSLSAGVFGGGTKLTVL
In turn, B15 came in with a Kd in the experiment with BoNT/B1 [2] of 0.79 nM.

The values above are taken from patent publication US20150197559A1 (University of California, published 2015).
